Measurements published in paper PMC5743566 (Theranostics, 2018).

Key:
Test in all cases: immunostaining of cells or tissue
HBx of HBV genotype C = HBx of HBV genotype C (Hepatitis B virus genotype C, strain …, UniProt P0C686, strain)
HBx of HBV genotype D = HBx of HBV genotype D (Hepatitis B virus genotype D, strain …, UniProt P03165, strain)
HBx of HBV genotype A = HBx of HBV genotype A (Hepatitis B virus genotype A, strain …, UniProt P69713, strain)

Measured: binding result

B1: 9D11 mAb (antibody, V domains shown)
VH: QVQLQQPGAELVRPGASVKLSCKASGYSFTSFWISWVKQRPGQGLEWIAMIHPSDNGIRFNQKFKDKATLTVDKSSSTAYMQLNSPTSEDSAVYFCARAGTATFTYWGQGTLVTVSA
VL: DIQMTQTTSSLSVSLGDRVTISCRASQDISNYLNWYQQKPDGIVKLLIYYTSRLHSGVPSRFSGSGSGTDYSLTISNLEQEDLATYFCQQGNALPWTFGGGTKLEIK
binds: HBx of HBV genotype C | HBx of HBV genotype D | HBx of HBV genotype A
